Measurements taken from the supplement of paper PMC7877785.
± gives the uncertainty stated by the source.

Assay: self-splicing fitness, log relative to wild type (ln ratio); higher = more splicing; Tetrahymena group I intron in knt gene, E. coli kanamycin selection, DiMSum; sequences stand for … in CUCUCU…GGAGGGAAAAGUUAUCAGGCAUGCACCUGGUAGCUAGUCUUUAAACCAAUAGAUUGCAUCGGUUUAAAAGGCAAGACCGUCAAAUUGCGGGAAAGGGGUCAACAGCCGUUCAGUACCAAGUCUCAGGGGAAACUUUGAGAUGGCCUUGCAAAGGGUAUGGUAAUAAGCUGACGGACAUGGUCCUAACCACGCAGCCAAGUCCUAAGUCAACAGAUCUUCUGUUGAUAUGGAUGCAGUUCACAGACUAAAUGUCGGUCGGGGAAGAUGUAUUCUUCUCAUAAGAUAUAGUCGGACCUCUCCUUAAUGGGAGCUAGCGGAUGAAGUGAUGCAACACUGGAGCCGCUGGGAACUAAUUUGUAUGCGAAAGUAUAUUGAUUAGUUUUGGAGUACUCGUGGUCG
Method in brief: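 DiMSum derived fitness as the error-weighted combination of fold changes across replicates, kanamycin versus no kanamycin, normalised to wild type. E. coli BL21(DE3) held the library, which randomised all eight P1ex-region intron nucleotides within the knt kanamycin-resistance gene on pET-22b(+). Six replicate transformations grew overnight at 37°C or 30°C on LB agar with or without 25 μg/mL kanamycin, also containing 100 μg/mL carbenicillin, 50 μM IPTG and 0.2% rhamnose, and pooled colonies were amplicon-sequenced on an Illumina HiSeq 2500.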

| Sequence | self-splicing fitness (ln) (30 °C) | self-splicing fitness (ln) (37 °C) |
| --- | --- | --- |
| CGCUAGCAAUAUUACGAGUA | -0.852 ± 0.11 | -0.525 ± 0.11 |
| CGCUAGCAAUAUUACGCCAA | – | -0.881 ± 0.32 |
| CGCUAGCAAUAUUACGCCCG | -2.1 ± 0.22 | -0.695 ± 0.35 |
| CGCUAGCAAUAUUACGCCCU | 0.0689 ± 0.15 | -0.957 ± 0.24 |
| CGCUAGCAAUAUUACGCCUG | 0.202 ± 0.13 | 0.152 ± 0.16 |
| CGCUAGCAAUAUUACGCGAG | -2.93 ± 0.28 | -2.56 ± 0.21 |
| CGCUAGCAAUAUUACGCGUC | -3.34 ± 0.32 | -3.09 ± 0.39 |
| CGCUAGCAAUAUUACGCUAG | -2.63 ± 0.22 | -2.16 ± 0.27 |
| CGCUAGCAAUAUUACGGACC | -2.14 ± 0.31 | – |
| CGCUAGCAAUAUUACGGGAU | -3.77 ± 0.36 | -2.4 ± 0.26 |
| CGCUAGCAAUAUUACGGGGC | -2.87 ± 0.22 | -2.29 ± 0.2 |
| CGCUAGCAAUAUUACGGGGG | -2.53 ± 0.14 | -2.43 ± 0.16 |
| CGCUAGCAAUAUUACGGGUC | -3.08 ± 0.21 | -2.9 ± 0.34 |
| CGCUAGCAAUAUUACGGUAU | -3.03 ± 0.15 | -2.39 ± 0.19 |
| CGCUAGCAAUAUUACGUAAU | -3.03 ± 0.16 | -1.53 ± 0.14 |
| CGCUAGCAAUAUUACGUACC | -1.89 ± 0.27 | -0.55 ± 0.2 |
| CGCUAGCAAUAUUACGUAGC | -3.14 ± 0.31 | -1.68 ± 0.37 |
| CGCUAGCAAUAUUACGUCAA | -3.88 ± 0.23 | -3.07 ± 0.23 |
| CGCUAGCAAUAUUACGUCUA | -2.47 ± 0.22 | -1.59 ± 0.34 |

| Sequence | self-splicing fitness (ln) (30 °C) | self-splicing fitness (ln) (37 °C) |
| --- | --- | --- |
| CGCUAGCAAUAUUACGUGGG | -3.6 ± 0.17 | -2.74 ± 0.21 |
| CGCUAGCAAUAUUACGUUAC | -3.23 ± 0.31 | – |
| CGGAAGCAAUAUUACGACCA | 0.623 ± 0.2 | -0.13 ± 0.27 |
| CGGAAGCAAUAUUACGACGA | -1.75 ± 0.21 | -0.502 ± 0.15 |
| CGGAAGCAAUAUUACGACUG | -2.02 ± 0.28 | -1.12 ± 0.23 |
| CGGAAGCAAUAUUACGAGCG | -1.14 ± 0.098 | -1.11 ± 0.095 |
| CGGAAGCAAUAUUACGAUAA | – | -1.52 ± 0.25 |
| CGGAAGCAAUAUUACGCACA | -1.07 ± 0.15 | 0.386 ± 0.16 |
| CGGAAGCAAUAUUACGCCAC | -3.64 ± 0.18 | -2.78 ± 0.26 |
| CGGAAGCAAUAUUACGCGAU | -3.28 ± 0.28 | -2.05 ± 0.33 |
| CGGAAGCAAUAUUACGGAUU | -4.05 ± 0.2 | -2.36 ± 0.13 |
| CGGAAGCAAUAUUACGGGAG | -2.37 ± 0.1 | -2.02 ± 0.17 |
| CGGAAGCAAUAUUACGGGCU | -3.27 ± 0.18 | -3.3 ± 0.25 |
| CGGAAGCAAUAUUACGUCUG | -3.74 ± 0.2 | -2.46 ± 0.19 |
| CGGAAGCAAUAUUACGUGUG | -1.38 ± 0.051 | -0.291 ± 0.067 |
| CGGAAGCAAUAUUACGUUUG | -1.9 ± 0.071 | -1.35 ± 0.089 |
| CGGCAGCAAUAUUACGACUG | -1.74 ± 0.24 | -0.611 ± 0.26 |
| CGGCAGCAAUAUUACGAGGA | -4.01 ± 0.43 | -2.28 ± 0.26 |
| CGGCAGCAAUAUUACGCACG | -2.17 ± 0.15 | -2.1 ± 0.23 |
